molecular target: T1, biotin-labeled human PD-1 Fc protein (human, biotin-labeled (site not stated)); test: capture ELISA, antibody captured on plate, biotin-labeled human PD-1 Fc in solution
T1 construct: also called PD-1-Fc-biotin
Procedure: (§1) Plates were washed 4 times with wash buffer (PBS+0.05% Tween-20, PBST) and then blocked with 200 μl/well blocking buffer (5% w/v non-fatty milk in PBST) for 2 hours at 37° C. […] After a final wash, plates were incubated with 100 μl/well ELISA substrate TMB (Innoreagents). The reaction was stopped in 15 minutes at 25° C. with 50 μl/well 1M H₂SO₄, and the absorbance was read at 450 nm. Data were analyzed using Graphpad Prism software and EC₅₀ values were reported.

T1 sequence (chain, as listed by the source limits assumed): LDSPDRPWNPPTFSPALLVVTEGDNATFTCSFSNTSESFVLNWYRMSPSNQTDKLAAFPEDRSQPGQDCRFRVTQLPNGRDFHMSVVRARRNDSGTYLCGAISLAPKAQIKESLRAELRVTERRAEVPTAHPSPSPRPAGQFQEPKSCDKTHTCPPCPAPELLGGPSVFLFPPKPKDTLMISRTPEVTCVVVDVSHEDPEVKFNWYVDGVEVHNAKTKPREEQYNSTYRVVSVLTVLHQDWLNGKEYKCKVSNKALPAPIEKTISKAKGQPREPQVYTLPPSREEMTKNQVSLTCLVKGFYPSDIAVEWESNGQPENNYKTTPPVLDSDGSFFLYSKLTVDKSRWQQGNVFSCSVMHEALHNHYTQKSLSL

Row | EC50 [ng/mL] | Binder
1 | 0.354 | huD2H3-V12 (antibody, human IgG1, kappa, V domains shown, Humanized D2H3, human IgG1/kappa; also called huPD1-D2H3-V12) VH: EVQLVQSGAEVKKPGSSVKVSCKASGYTFTNYWMHWVRQAPGQGLEWMGAIFPRNSETNYNQKFKARVTITADESTSTAYMELSSLRSEDTAVYYCTRNRYGLDYWGQGTLVTVSS VL: DIVLTQSPDSLAVSLGERATINCRASESVSLHGTRLMHWYQQKPGQPPKLLISLGSNLESGVPDRFSGSGSETDFTLTISSLQAEDVAVYFCQQSIEDPWTFGQGTKLEIKR

molecular target: T1, biotin-labeled human PD-1 Fc protein; test: as above; remark: another data set of the same source
Procedure: as §1

Row | EC50 [ng/mL] | Binder
2 | 0.28 | huD2H3-V1 (antibody, human IgG1, kappa, Humanized D2H3, human IgG1/kappa) heavy: not shown light: DIVLTQSPDSLAVSLGERATINCRASESVSLHGTRLMHWYQQKPGQPPKLLISLGSNLESGVPDRFSGSGSETDFTLTISSLQAEDVAVYFCQQSIEDPWTFGQGTKLEIKRTVAAPSVFIFPPSDEQLKSGTASVVCLLNNFYPREAKVQWKVDNALQSGNSQESVTEQDSKDSTYSLSSTLTLSKADYEKHKVYACEVTHQGLSSPVTKSFNRGEC
3 | 0.32 | huD2H3-V5 (antibody, human IgG1, kappa, V domains shown, Humanized D2H3, human IgG1/kappa) VH: EVQLVQSGAEVKKPGSSVKVSCKSSGYTFTNYWMHWVRQAPGQGLEWIGAIFPRNSETNYNQKFKARATITADTSTSTAYMELSSLRSEDTAVYFCTRNRYGLDYWGQGTLVTVSS VL: DIVLTQSPDSLAVSLGERATINCRASESVSLHGTRLMHWYQQKPGQPPKLLISLGSNLESGVPDRFSGSGSETDFTLTISSLQAEDVAVYFCQQSIEDPWTFGQGTKLEIKR
4 | 0.21 | huD2H3-V2 (antibody, human IgG1, kappa, V domains shown, Humanized D2H3, human IgG1/kappa) VH: EVQLVQSGAEVKKPGSSVKVSCKASGYTFTNYWMHWVRQAPGQGLEWIGAIFPRNSETNYNQKFKARATLTADTSTSTAYMELSSLRSEDTAVYFCTRNRYGLDYWGQGTLVTVSS VL: DIVLTQSPDSLAVSLGERATINCRASESVSLHGTRLMHWYQQKPGQPPKLLISLGSNLESGVPDRFSGSGSETDFTLTISSLQAEDVAVYFCQQSIEDPWTFGQGTKLEIKR
5 | 0.19 | huD2H3-V3 (antibody, human IgG1, kappa, V domains shown, Humanized D2H3, human IgG1/kappa) VH: EVQLVQSGAEVKKPGSSVKVSCKSSGYTFTNYWMHWVRQAPGQGLEWMGAIFPRNSETNYNQKFKARATLTADTSTSTAYMELSSLRSEDTAVYFCTRNRYGLDYWGQGTLVTVSS VL: DIVLTQSPDSLAVSLGERATINCRASESVSLHGTRLMHWYQQKPGQPPKLLISLGSNLESGVPDRFSGSGSETDFTLTISSLQAEDVAVYFCQQSIEDPWTFGQGTKLEIKR
6 | 0.17 | huD2H3-V6 (antibody, human IgG1, kappa, V domains shown, Humanized D2H3, human IgG1/kappa) VH: EVQLVQSGAEVKKPGSSVKVSCKSSGYTFTNYWMHWVRQAPGQGLEWIGAIFPRNSETNYNQKFKARATLTADESTSTAYMELSSLRSEDTAVYFCTRNRYGLDYWGQGTLVTVSS VL: DIVLTQSPDSLAVSLGERATINCRASESVSLHGTRLMHWYQQKPGQPPKLLISLGSNLESGVPDRFSGSGSETDFTLTISSLQAEDVAVYFCQQSIEDPWTFGQGTKLEIKR
7 | 0.28 | huD2H3-V4 (antibody, human IgG1, kappa, V domains shown, Humanized D2H3, human IgG1/kappa) VH: EVQLVQSGAEVKKPGSSVKVSCKSSGYTFTNYWMHWVRQAPGQGLEWIGAIFPRNSETNYNQKFKARVTLTADTSTSTAYMELSSLRSEDTAVYFCTRNRYGLDYWGQGTLVTVSS VL: DIVLTQSPDSLAVSLGERATINCRASESVSLHGTRLMHWYQQKPGQPPKLLISLGSNLESGVPDRFSGSGSETDFTLTISSLQAEDVAVYFCQQSIEDPWTFGQGTKLEIKR

molecular target: T1, biotin-labeled human PD-1 Fc protein; test: as above; remark: another data set of the same source
Procedure: as §1

Row | EC50 [ng/mL] | Binder
8 | 0.385 | huD2A4-V1 (antibody, human IgG1, kappa, Humanized D2A4, human IgG1/kappa) heavy: not shown light: DIQMTQSPSSVSASVGDRVTITCLASQTIGTWLAWYQQKPGKSPKLLIYAATSLADGVPSRFSGSGSGTDFTLTISSLQPEDFATYYCQQVSSIPWTFGGGTKVEIKRTVAAPSVFIFPPSDEQLKSGTASVVCLLNNFYPREAKVQWKVDNALQSGNSQESVTEQDSKDSTYSLSSTLTLSKADYEKHKVYACEVTHQGLSSPVTKSFNRGEC
9 | 0.349 | huD2A4-V4 (antibody, human IgG1, kappa, V domains shown, Humanized D2A4, human IgG1/kappa) VH: EVQLVESGGGLVQPGGSLRLSCAASGFTFSSYTMSWVRQAPGKGLEWVATISGGGSNTYYPDSVKGRFTISRDNSKNTLYLQMNSLRAEDTAVYYCARQAFYSNYWYFDVWGAGTTVTVSS VL: DIQMTQSPSSVSASVGDRVTITCLASQTIGTWLAWYQQKPGKAPKLLIYAATSLADGVPSRFSGSGSGTDFTLTISSLQPEDFATYYCQQVSSIPWTFGGGTKVEIKR
10 | 0.55 | huD2A4-V3 (antibody, human IgG1, kappa, Humanized D2A4, human IgG1/kappa) heavy: not shown light: DIQMTQSPSSVSASVGDRVTITCLASQTIGTWLAWYQQKPGKSPKLLIYAATSLADGVPSRFSGSGSGTDFTLTISSLQPEDFATYYCQQVSSIPWTFGGGTKVEIKRTVAAPSVFIFPPSDEQLKSGTASVVCLLNNFYPREAKVQWKVDNALQSGNSQESVTEQDSKDSTYSLSSTLTLSKADYEKHKVYACEVTHQGLSSPVTKSFNRGEC
11 | 0.379 | huD2A4-V2 (antibody, human IgG1, kappa, Humanized D2A4, human IgG1/kappa) heavy: not shown light: DIQMTQSPSSVSASVGDRVTITCLASQTIGTWLAWYQQKPGKSPKLLIYAATSLADGVPSRFSGSGSGTDFTLTISSLQPEDFATYYCQQVSSIPWTFGGGTKVEIKRTVAAPSVFIFPPSDEQLKSGTASVVCLLNNFYPREAKVQWKVDNALQSGNSQESVTEQDSKDSTYSLSSTLTLSKADYEKHKVYACEVTHQGLSSPVTKSFNRGEC

molecular target: T1, biotin-labeled human PD-1 Fc protein; test: as above; remark: another data set of the same source
Procedure: as §1

Row | EC50 [ng/mL] | Binder
12 | 0.505 | huD2H3-V10 (antibody, human IgG1, kappa, V domains shown, Humanized D2H3, human IgG1/kappa) VH: EVQLVQSGAEVKKPGSSVKVSCKSSGYTFTNYWMHWVRQAPGQGLEWIGAIFPRNSETNYNQKFKARATLTADTSTSTAYMELSSLRSEDTAVYFCTRNRYGLDYWGQGTLVTVSS VL: DIVLTQSPDSLAVSLGERATINCRASESVSLHGTRLMHWYQQKPGQPPKLLISLGSNLESGVPDRFSGSGSGTDFTLTISSLQAEDVAVYFCQQSIEDPWTFGQGTKLEIKR
13 | 0.17 | huD2H3-V11 (antibody, human IgG1, kappa, V domains shown, Humanized D2H3, human IgG1/kappa) VH: EVQLVQSGAEVKKPGSSVKVSCKSSGYTFTNYWMHWVRQAPGQGLEWIGAIFPRNSETNYNQKFKARATLTADTSTSTAYMELSSLRSEDTAVYFCTRNRYGLDYWGQGTLVTVSS VL: DIVLTQSPDSLAVSLGERATINCRASESVSLHGTRLMHWYQQKPGQPPKLLISLGSNLESGVPDRFSGSGSETDFTLTISSLQAEDVAVYYCQQSIEDPWTFGQGTKLEIKR
14 | 0.157 | huD2H3-V7 (antibody, human IgG1, kappa, V domains shown, Humanized D2H3, human IgG1/kappa) VH: EVQLVQSGAEVKKPGSSVKVSCKSSGYTFTNYWMHWVRQAPGQGLEWIGAIFPRNSETNYNQKFKARATLTADTSTSTAYMELSSLRSEDTAVYYCTRNRYGLDYWGQGTLVTVSS VL: DIVLTQSPDSLAVSLGERATINCRASESVSLHGTRLMHWYQQKPGQPPKLLISLGSNLESGVPDRFSGSGSETDFTLTISSLQAEDVAVYFCQQSIEDPWTFGQGTKLEIKR
15 | 0.171 | huD2H3-V8 (antibody, human IgG1, kappa, Humanized D2H3, human IgG1/kappa) heavy: not shown light: DIVMTQSPDSLAVSLGERATINCRASESVSLHGTRLMHWYQQKPGQPPKLLISLGSNLESGVPDRFSGSGSETDFTLTISSLQAEDVAVYFCQQSIEDPWTFGQGTKLEIKRTVAAPSVFIFPPSDEQLKSGTASVVCLLNNFYPREAKVQWKVDNALQSGNSQESVTEQDSKDSTYSLSSTLTLSKADYEKHKVYACEVTHQGLSSPVTKSFNRGEC
16 | 0.358 | huD2H3-V9 (antibody, human IgG1, kappa, V domains shown, Humanized D2H3, human IgG1/kappa) VH: EVQLVQSGAEVKKPGSSVKVSCKSSGYTFTNYWMHWVRQAPGQGLEWIGAIFPRNSETNYNQKFKARATLTADTSTSTAYMELSSLRSEDTAVYFCTRNRYGLDYWGQGTLVTVSS VL: DIVLTQSPDSLAVSLGERATINCRASESVSLHGTRLMHWYQQKPGQPPKLLIYLGSNLESGVPDRFSGSGSETDFTLTISSLQAEDVAVYFCQQSIEDPWTFGQGTKLEIKR
